Experimental data from patent publication US20240002497A1 (Merck Sharp & Dohme, published 2024).
Changes are numbered by the printed parent chain. In names and notes the source's numbering stands.

B1: F010300477 (VHH)
VHH: EVQLVESGGGLVQPGGSLRLSCAASGSIFNINSMAWYRRAPGKQRELVASSTNGGSTNYADSVKGRFTISRDNAKRVYLQMNSLTPEDTAVYYCNWLLQPSIYDISRTYWGQGTLVTVSS
notes: vs F0103275B05: A94W
B2: F010300631 (VHH)
VHH: B1 VHH with S27P, I28V, S50Y, N53P, N95R, W96A
notes: vs F0103275B05: S27P, I28V, S50Y, N53P, N93R
B3: F010300990 (VHH)
VHH: B1 VHH with S27P, I28V, S33R, S50Y, N53P, W96A, T108I
notes: vs F0103275B05: S27P, I28V, S33R, S50Y, N53P, T101I
B4: F010300948 (VHH)
VHH: B1 VHH with S27P, I28V, S33R, N53P, N95R, T108I
notes: vs F0103275B05: S27P, I28V, S33R, N53P, N93R, A94W, T101I
B5: F010300900 (VHH)
VHH: B1 VHH with S27P, I28V, S33R, N53P, S56D, N95R, T108I
notes: vs F0103275B05: S27P, I28V, S33R, N53P, S56D, N93R, A94W, T101I
B6: F010300659 (VHH)
VHH: B1 VHH with S27P, I28V, S50Y, N53P, G55W, S56D, T57W, N95R
notes: also called F0103275B05(S27P, I28V, S50Y, N53P, G55W, S56D, T57W, N93R, A94W)+FLAG3-HIS6
B7: F010300684 (VHH)
VHH: B1 VHH with S27P, I28V, I31W, N53P, N95R, W96A, T108I
notes: vs F0103275B05: S27P, I28V, I31W, N53P, N93R, T101I
B8: F010300880 (VHH)
VHH: B1 VHH with S27P, I28V, S33R, N53P, S56D, N95R
notes: vs F0103275B05: S27P, I28V, S33R, N53P, S56D, N93R, A94W
B9: F010300534 (VHH)
VHH: EVQLVESGGGLVQPGGSLRLSCAASGMLFNANTQGWYRQAPGKQRELVAFIFSGGYVNYVDSVKGRFTISRDNAKRTMYLQMNSLKPEDSAIYYCSLSRYLGQGTLVTVSS
notes: vs F0103265A11: T57V
B10: F010300536 (VHH)
VHH: B9 VHH with V57T, N58T
notes: vs F0103265A11: N58T
B11: F010300535 (VHH)
VHH: B9 VHH with S53W, V57T
notes: vs F0103265A11: S53W
B12: F010301664 (VHH)
VHH: EVQLVESGGGLVQPGGSLRLSCAASVRPFSTSAMGWFRQAPEKEREAVAGILWNGIVTYYADSVKGRFTISRDNAKNEVYLQMNKLKPEDTAVYYCALDRDYQGRSFSAKEYEYWGQGTLVTVSS
B13: F010301665 (VHH)
VHH: B12 VHH with G50A, D101A, Q103G, S124A, S125A
B14: F010301662 (VHH)
VHH: B12 VHH with D101A, K110Y
B15: F010301666 (VHH)
VHH: B12 VHH with G50A
B16: F010301463 (VHH)
VHH: B9 VHH with A31R, V57T, V60N, S96A, L101Q
notes: vs F0103265A11: A31R, V60N, S93A, L103Q
B17: F010301458 (VHH)
VHH: B9 VHH with A31R, Y56W, V57T, V60N, S96A, L101Q
notes: vs F0103265A11: A31R, Y56W, V60N, S93A, L103Q
B18: F010301655 (VHH)
VHH: B1 VHH with L11V, S33R, R39Q, S50Y, S56D, R76N, T85R, V91L, N95R, W96A
notes: also called F0103275B05(L11V, S33R, R39Q, S50Y, S56D, R76N, T83R, V89L, N93R)
B19: F010301654 (VHH)
VHH: B1 VHH with L11V, S33R, R39Q, S50Y, S56D, T85R, V91L, N95R, W96A
notes: also called F0103275B05(L11V, S33R, R39Q, S50Y, S56D, T83R, V89L, N93R)
B20: F010301652 (VHH)
VHH: B1 VHH with L11V, S33R, S50Y, S56D, R76N, T85R, V91L, N95R, W96A
notes: also called F0103275B05(L11V, S33R, S50Y, S56D, R76N, T83R, V89L, N93R)
B21: F010301653 (VHH)
VHH: B1 VHH with L11V, S33R, S50Y, S56D, T85R, V91L, N95R, W96A
notes: also called F0103275B05(L11V, S33R, S50Y, S56D, T83R, V89L, N93R)

Target: T1, huNav1.7α+β1 (human, UniProt Q15858 1-1988; Q07699 19-218)
Assay: cell-based or functional assay

Binder | single pulse IC50 [nM]
B1 | 96
B2 | 73
B3 | 250
B4 | 320
B5 | 200
B6 | 85
B7 | 200
B8 | 27

Target: T2, huNav1.7α (human, UniProt Q15858 1-1988)
Assay: cell-based or functional assay

Binder | 2-pulse IC50 [M], P1 [M] | 2-pulse IC50 [M], P2 [M]
B1 | 2e-06 | 2e-06
B2 | 1e-06 | 8e-07
B6 | 1e-06 | 8e-07
B7 | 2e-06 | 2e-06

Target: T3, rhNav1.7α+β1-β2-β3 (rhesus monkey α subunit with human β …)
Assay: cell-based or functional assay

Binder | single pulse IC50 [nM]
B1 | 1200
B2 | 170
B3 | 100
B4 | 58
B5 | 36
B6 | 180
B7 | 210
B8 | 120

Target: rhNav1.7α (rhesus monkey, UniProt Q15858 1-1988 (human entry))
Assay: cell-based or functional assay

Binder | 2-pulse IC50 [M], P1 [M] | 2-pulse IC50 [M], P2 [M]
B1 | 3e-06 | 1e-06
B2 | 2e-06 | 8e-07
B6 | 1e-06 | 7e-07
B7 | 7e-06 | 1e-06

Target: T2, huNav1.7α
Assay: binding FACS, HEKa cells

Binder | EC50 [nM]
B3 | 4.3
B4 | 69
B5 | 20
B6 | 9.7
B8 | 15

Target: T2, huNav1.7α
Assay: binding FACS, HEKa cells
Remark: another data set of the same source
Method: (§1) Binding of the ISVDs to cell-expressed Nav1.7α was detected via murine anti-Flag (Sigma, catalog #F1804). Briefly, cells were resuspended in FACS buffer (PBS, 10% FBS, NaN₃) and transferred to a 96-well V-bottom plate at 1×10^5 cells/well. Purified FLAG3-tagged ISVD was diluted in FACS buffer and added to the cells for 30 minutes at 4° C. […] Prior to the read-out, the samples were resuspended in 1 μg/mL propidium iodide (Sigma, catalog #P4170) to exclude dead cells. Between each step, the cells were centrifuged for 5 minutes at 200 grams and washed with 100 μL/well FACS buffer.

Binder | binding result | EC50 [nM]
B9 | no binding | 
B10 |  | 660
B11 |  | 720

Target: T4, huNav1.7α (HEKa) (human, UniProt Q15858 1-1988)
T4 construct: also called HEKa huNav1.7α
Assay: binding FACS, HEKa cells
Method: as §1

Binder | EC50 [nM]
B12 | 13
B13 | 8.8
B14 | 19
B15 | 10

Target: T1, huNav1.7α+β1
Assay: binding FACS, HEKa/β1 cells

Binder | EC50 [nM]
B3 | 65
B4 | 68
B5 | 70
B6 | 27
B8 | 44

Target: T1, huNav1.7α+β1
Assay: binding FACS, HEKa/β1 cells
Remark: another data set of the same source
Summary of the method: (§2)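 Cells in FACS buffer (PBS, 10% FBS, NaN₃) were incubated with purified FLAG3-tagged ISVD for 30 minutes at 4° C. Bound ISVD was detected by flow cytometry with murine anti-Flag, and dead cells were excluded with 1 μg/mL propidium iodide.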

Binder | Bmax relative to '535 [%] | EC50 [nM]
B9 | 62 | 11
B10 | 77 | 9
B11 | 100 | 5.5
B16 | 120 | 2.5
B17 | 120 | 2.2

Target: T5, huNav1.7α + β1 (HEKa/β1) (human, UniProt Q15858 1-1988; Q07699 19-218)
T5 construct: also called HEKa/β1 huNav1.7α
Assay: binding FACS, HEKa/β1 cells
Summary of the method: as §2

Binder | EC50 [nM]
B12 | 18
B13 | 11
B14 | 17
B15 | 14

Target: T3, rhNav1.7α+β1-β2-β3
Assay: binding FACS, CHO FlpIn cells

Binder | EC50 [nM]
B1 | 170
B2 | 45
B3 | 38
B4 | 20
B5 | 25
B6 | 55
B7 | 50
B8 | 26

Target: T6, huNav1.7α+β1-β2-β3 (human, UniProt Q15858 1-1988; Q07699 19-218; O60939 30-215; Q9NY72 23-215)
T6 construct: 5N11S variant; also called huNav1.7-beta1-beta2-beta3; huNav1.7α+Navβ1-Navβ2-Navβ3
Assay: binding FACS, HEK FlpIn cells

Binder | EC50 [nM]
B9 | 72
B10 | 27
B11 | 16
B16 | 4.3
B17 | 4.1

Target: T7, huNav1.7α + β1-β2-β3 (human Nav1.7α co-expressed with human Navβ1, Navβ2 and Navβ3 on cells) (human)
T7 construct: also called huNav1.7-beta1-beta2-beta3; CHO FlpIn huNav1.7α + β1-β2-β3
Assay: binding FACS, CHO FlpIn cells
Summary of the method: as §2

Binder | EC50 [nM]
B18 | 46
B19 | 32
B20 | 61
B21 | 36

Target: T8, rhNav1.7α + β1-β2-β3 (rhesus Nav1.7α co-expressed with Navβ1, Navβ2 and Navβ3 on cells) (rhesus monkey (α subunit); β subunits …)
T8 construct: also called rhNav1.7-beta1-beta2-beta3; CHO FlpIn rhNav1.7α + β1-β2-β3
Assay: binding FACS, CHO FlpIn cells
Summary of the method: as §2

Binder | EC50 [nM]
B18 | 26
B19 | 18
B20 | 24
B21 | 16

Target: T9, huNav1.7α on HEK cells (without β subunits) (human, UniProt Q15858 1-1988)
T9 construct: also called HEKa huNav1.7α
Assay: binding FACS, HEK cells (HEKa)

Binder | EC50 [nM]
B18 | 19
B19 | 18
B20 | 24
B21 | 15

Target: huNav1.7α + β1 on HEK cells (human, UniProt Q15858 1-1988; Q07699 19-218)
Assay: binding FACS, HEK cells (HEKa/b1)

Binder | EC50 [nM]
B18 | 28
B19 | 25
B20 | 38
B21 | 29
